B1: TPR t1 (parent)
chain: GACCAAUCUGCCCUCAGAGCUCGAGAACAUCUUCGGAUGCAGAGGAGGCAGGCUUCGGUGGCGCGAUAGCGCCAACGUCCUCAACCUCCAAUGCAUCCCACCACAUGAUGAUGCCUGAAGAGCCUUGGUUUUUUG

Variants of: B1
Assay: polymerase ribozyme fitness, log enrichment relative to wild type (log ratio); higher = more active; in vitro selection for triplet polymerase activity
Outline: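 Each subunit of a heterodimeric triplet polymerase ribozyme was represented by a PCR-built, transcribed mutant library that underwent triplicate single-round in vitro selection with frozen incubation at −7 °C. Extended constructs were recovered by gel excision, streptavidin-bead capture and RT-PCR, and Illumina sequencing of input and output libraries kept genotypes with ≥10 input reads and ≥1 read per output. Fitness is the logarithm of genotype enrichment relative to wild-type enrichment, from inverse-variance-weighted replicate averages, with a logarithm base of 2.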

First: A16U U55C
Second: A16G G93A
The “polymerase ribozyme fitness (log ratio)” value of the first is higher: -2.11 for the first, -2.61 for the second.

Compared with A16U U55A U81A A84C U132A, C15U A37U U55G C56U is lower in “polymerase ribozyme fitness (log ratio)” value: -2.61 for the first, -3.11 for the second.

First: C15U G117U G120A
Second: A16G G57C C98U U112A G128C
The “polymerase ribozyme fitness (log ratio)” value of the first is higher: -1.56 for the first, -5.3 for the second.

Compared with C15U C49A U92C U106A, C15U C114U is higher in “polymerase ribozyme fitness (log ratio)” value: -3.27 for the first, -2.91 for the second.

Going from C15U A84U U87A A105G G113U to A16C A18C C40U G71U C79U, the “polymerase ribozyme fitness (log ratio)” value rises from -5.89 to -5.22.

Compared with C15U U54A U59A C80A C82G C123U, A16G A41U C72U U106C G120C is higher in “polymerase ribozyme fitness (log ratio)” value: -3.3 for the first, -1.7 for the second.

A16U C64U and A16U C72A U131C are within 0.2 log units of each other in “polymerase ribozyme fitness (log ratio)” value: -1.71 for the first, -1.73 for the second.

Going from A16U G52U A111C U126G G127U to A16U A37C C73G U112C U133G, the “polymerase ribozyme fitness (log ratio)” value rises from -2.8 to -1.75.

Going from C15U C70U to C15U A111U A118C, the “polymerase ribozyme fitness (log ratio)” value falls from -1.7 to -5.19.

First: C15U G42C A74U
Second: C15U U38A G60U A83G
The “polymerase ribozyme fitness (log ratio)” value of the first is lower: -3.74 for the first, -2.98 for the second.

First: A16G C40G C124A
Second: C15U C94A
The “polymerase ribozyme fitness (log ratio)” value of the first is higher: 0.0509 for the first, -2.56 for the second.

Going from C15U G57U C72U C82A A111C A118G to A16U U59G, the “polymerase ribozyme fitness (log ratio)” value rises from -1.91 to -1.3.

Going from A16U U59A to C15U A29U, the “polymerase ribozyme fitness (log ratio)” value falls from 0.971 to -3.13.

Compared with A16U G52A, A16G U55A G60A G93U C102U U130G is lower in “polymerase ribozyme fitness (log ratio)” value: -2.03 for the first, -3.39 for the second.

First: A16G C56A G71U C124A U130A
Second: A16C G77U A119G
The “polymerase ribozyme fitness (log ratio)” value of the first is lower: 0.162 for the first, 0.8 for the second.

First: C15U A16C G93C C123U U126C
Second: A16G G39A C114U
The “polymerase ribozyme fitness (log ratio)” value of the first is higher: -2.73 for the first, -4.17 for the second.

Compared with A16U C72U, A16G C49G G51U C86A U126C is lower in “polymerase ribozyme fitness (log ratio)” value: -1.94 for the first, -4.58 for the second.

Compared with A16U G17A C49U G57U A90U, A16U G110A U132C is higher in “polymerase ribozyme fitness (log ratio)” value: -5.5 for the first, -2.1 for the second.

First: C15U U21C G110A U130G
Second: A16G G63U
The “polymerase ribozyme fitness (log ratio)” value of the first is lower: -4.32 for the first, -1.65 for the second.

First: A16U C89G C123G
Second: C15U A43C
The “polymerase ribozyme fitness (log ratio)” value of the first is higher: -1.67 for the first, -2.99 for the second.

First: C15U C40U C114A
Second: A16U G23A G60A A111G G122U
The “polymerase ribozyme fitness (log ratio)” value of the first is higher: -4.3 for the first, -7.12 for the second.

A16C C49A and C15U U96C U129A are within 0.2 log units of each other in “polymerase ribozyme fitness (log ratio)” value: -3.04 for the first, -2.88 for the second.

Going from A16C C70U to A16G G71U, the “polymerase ribozyme fitness (log ratio)” value rises from -3.17 to -0.398.

Compared with A16U C40A U54C G60A, A16C G61C G69U U81A G120C is lower in “polymerase ribozyme fitness (log ratio)” value: -2.69 for the first, -3.32 for the second.

Compared with C15U C97G A121C, A16G G45A C80G C114U is lower in “polymerase ribozyme fitness (log ratio)” value: -4.09 for the first, -5.91 for the second.

Compared with C15U G117U, C15U G117C is higher in “polymerase ribozyme fitness (log ratio)” value: -3.29 for the first, -2.96 for the second.

Compared with C15U A18U C31A G39U U54A C72U C114U C115G, C15U G52A is higher in “polymerase ribozyme fitness (log ratio)” value: -6.25 for the first, -1.6 for the second.

Compared with C15U U30G C53G G71C U78G U106A, A16U U112A is higher in “polymerase ribozyme fitness (log ratio)” value: -4.3 for the first, 0.0459 for the second.

Going from A16U G69U C80G A90C to A16U U133G, the “polymerase ribozyme fitness (log ratio)” value rises from -6.49 to -2.05.

First: A16U G42A
Second: C15U C124A
The “polymerase ribozyme fitness (log ratio)” value of the first is lower: -3.84 for the first, 0.552 for the second.

Going from C15U U133A to C15U U133G, the “polymerase ribozyme fitness (log ratio)” value falls from -1.79 to -2.11.

Compared with A16U A84U A100U C124A U129G, C15U C64G A90C C114U G128A is lower in “polymerase ribozyme fitness (log ratio)” value: -0.308 for the first, -6.98 for the second.

First: A16C G45C G63A A100C U112C U129G
Second: C15U G135U
The “polymerase ribozyme fitness (log ratio)” value of the first is lower: -2.73 for the first, -2.12 for the second.

Compared with A16G G60A G120C, A16G G48C G60A is lower in “polymerase ribozyme fitness (log ratio)” value: -0.306 for the first, -1.87 for the second.

First: C15U G36U C64A A121G
Second: A16U G48U C62G C85A
The “polymerase ribozyme fitness (log ratio)” value of the first is lower: -5.18 for the first, -3.66 for the second.

Going from A16U G47U G52U C115U G117C to A16U G61C G117C C124G, the “polymerase ribozyme fitness (log ratio)” value rises from -5.71 to -4.49.

Compared with A16C C79G, C15U G60A A91C is higher in “polymerase ribozyme fitness (log ratio)” value: -4.14 for the first, -2.6 for the second.

Compared with C15U C53U C97U, C15U G48U A103C C123G is lower in “polymerase ribozyme fitness (log ratio)” value: -1.96 for the first, -6.34 for the second.

First: A16U G113A C123U
Second: C15U G39U G42A A84U
The “polymerase ribozyme fitness (log ratio)” value of the first is lower: -4.77 for the first, -4.16 for the second.

Going from C15U G57A G58A U109G G113A to A16G G36U G69C A121U, the “polymerase ribozyme fitness (log ratio)” value rises from -7.08 to -1.25.

First: A16U G45A A90G U96A U112G A118C
Second: A16U C40U C82U
The “polymerase ribozyme fitness (log ratio)” value of the first is lower: -3.03 for the first, -2.7 for the second.

First: C15U G45C G117A
Second: C15U C115A
The “polymerase ribozyme fitness (log ratio)” value of the first is higher: -1.11 for the first, -1.57 for the second.

— the RNAGym collection of RNA variant scans (doi:10.1073/pnas.2313332121)
